Measurements reported in patent publication US20200223903A1 (NEOMATRIX THERAPEUTICS, published 2020).

B1: P46 (HISKYILRWRPKNSV), fibronectin-derived peptide (peptide)
peptide: HISKYILRWRPKNSV
notes: Found as an elastase digestion product of FNIII1-C and then synthesized; Linear
B2: P12 (PSHISKYILRWRPK), 14-residue peptide of fibronectin's first type III repeat (peptide)
peptide: PSHISKYILRWRPK
notes: Linear P12 as named in the SPR paragraph

These binders were tested against T1, insulin-like growth factor-1 (UniProt P05019 49-118) (assay: SPR (Biacore T200), real time interaction of peptide with growth factor).
T1 construct: also called IGF-1
Experimental: (§1) To study the binding activities of these peptides, real time interactions of P12, P46, and cNP8 with growth factors were determined by plasmon surface resonance (Biacore T200).

T1 sequence (P05019 49-118 limits assumed): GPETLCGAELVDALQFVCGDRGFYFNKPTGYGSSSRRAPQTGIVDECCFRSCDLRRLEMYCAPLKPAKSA

Row | Binder | binding result
1 | HIGKYGLRWRPKGSV (cyclic: N terminus amino acid bound to the C terminus amino acid, also called cyclic NP8) [cNP8, cyclic HIGKYGLRWRPKGSV, elastase-resistant engineered peptide derived from P46] | no binding
2 | B1 | no binding
3 | B2 | no binding

The binders below were run against T2, epidermal growth factor (UniProt P01133 971-1023) in the same assay as above.
T2 construct: also called EGF
Experimental: as §1

T2 sequence (P01133 971-1023 limits assumed): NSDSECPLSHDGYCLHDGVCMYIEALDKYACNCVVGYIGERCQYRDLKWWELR

Row | Binder | binding result
4 | HIGKYGLRWRPKGSV (cyclic: N terminus amino acid bound to the C terminus amino acid, also called cyclic NP8) [cNP8, cyclic HIGKYGLRWRPKGSV, elastase-resistant engineered peptide derived from P46] | no binding
5 | B1 | no binding
6 | B2 | no binding
